Biological target: hemocyanin from Fissurella latimarginata (Fissurella latimarginata)
Test: negative-stain transmission electron microscopy; purified FLH 100 µg/ml on parlodion-coated copper grid, stained with 1-2% aqueous uranyl acetate, 80 kV; quaternary structure of the assembled protein

## hemocyanin from Fissurella latimarginata (natural protein)
  stoichiometry N: 20 subunits

Reference: article PMC3900722
